The target of test [1] is T1, Human Rac1 (residues 1-177), GMPPNP-loaded (human, UniProt P63000 1-177). Description: ITC; 15 °C. (In general: Isothermal titration calorimetry measures the heat released or taken up as one component is titrated into another.)
Test [2] deals with T1, Human Rac1 (residues 1-177), …. As to the kind of experiment: ITC; 10 °C, GMPPNP-loaded Rac1 (average).
Test [3] shares this target. As to the kind of experiment: ITC; 15 °C, GMPPNP-loaded Rac1 (average).
Test [4] shares this target. As to the kind of experiment: ITC; 35 °C, GMPPNP-loaded Rac1 (average).

B1: POSH_(315-380), shorter construct of human POSH comprising MRE1 and MRE2 (domain or fragment)
chain: GHMWSQASQNRHSMEISPPVLISSSNPTAAARISELSGLSCSAPSQVHISTTGLIVTPPPSSPVTTGPSF
One may read the Kd as the equilibrium constant for the complex coming apart. In the case of B1, the Kd came out at 21.6 µM in test [1], 26.8 µM in test [2], 20.2 µM in test [3] and 21.7 µM in test [4].
